We go through 6 substances from paper PMC12956874.

Assay [1] concerns the target PEX19-His, full-length (T. brucei). Put plainly: AlphaScreen or HTRF.
Assay [2] has as its target PEX19-His 1 to 50 (T. brucei). The assay can be described thus: AlphaScreen or HTRF.
The target of assay [3] is PEX38_(65–134) (T. brucei). Put plainly: ITC; titration of PEX38 with PEX19; technical triplicates. (Isothermal titration calorimetry measures the heat released or taken up as one component is titrated into another.)
Assay [4] deals with PEX19-His, full-length (T. brucei). Put plainly: AlphaScreen or HTRF; AlphaScreen displacement assay: equimolar PEX19-His and GST-PEX3Δ1-44 (30 nM), increasing amounts of untagged PEX38. For orientation: Bead proximity is the source of the signal in Alpha formats.
Assay [5] has as its target TbPEX38 (65-134) (T. brucei). Put plainly: ITC; 40 µM TbPEX38 titrated with 440 µM TbPEX19; triplicates; 25°C; 20 mM Tris pH 7.5, 50 mM NaCl; one-site binding model; MicroCal PEAQ-ITC.

On to GST-PEX3Δ1-44 (domain or fragment), for which the other in assay [1] was 30 fold.

“GST-PEX38, full-length (natural protein)” came in with an other in assay [2] of 10 fold.

As to “PEX19_(1–50) with a C-terminal SGGY extension (domain or fragment)”, the Kd (commonly the concentration at which binding is half-saturated) in assay [3] came to 3000 nM.

As for PEX38_(65–134) (domain or fragment), in assay [4], the IC50 (in general, the concentration needed to halve the response being measured) turned out to be 446 nM.

Turning to “TbPEX19 (1-50-SGGY) (domain or fragment)”, the Kd in assay [5] was determined as 2890 nM.

Turning to “untagged PEX38, full-length (natural protein)”, the IC50 in assay [4] was found to be 950 nM.
